Data as given in patent US6762284 (ONYX PHARMACEUTICALS, dated 2004).
Like-named read-outs stand apart in the source and are kept apart here.

How the values were obtained:
Assay in all cases: yeast two-hybrid
[1] = target: T1, p85 SH3 domain (AA 6-117) (human, UniProt P04386 1-147; P27986 6-117)
[2] = target: T2, p85 Bcr homology domain (AA 118-340) (human, UniProt P04386 1-147; P27986 118-340)
[3] = target: T3, p85 C-terminal SH2 domain (AA 620-727) (human, UniProt P04386 1-147; P27986 620-724)
[4] = target: T4, p85 N-terminal SH2 and inter SH2 domain (AA 263-620) (human, UniProt P04386 1-147; P27986 263-620)
T4 construct: Two-hybrid bait fusion

[5] = target: T5, p85 full length (AA 6-727) (human, UniProt P04386 1-147; P27986 6-724)
T5 construct: also called GAL4-p85

[6] = target: p85 SH2 domains and inter SH2 domain (AA 263-727) (human, UniProt P04386 1-147; P27986 263-724)
[7] = target: T1, p85 SH3 domain (AA 6-117); remark: listed apart in the source
[8] = target: T2, p85 Bcr homology domain (AA 118-340); remark: listed apart in the source
[9] = target: T3, p85 C-terminal SH2 domain (AA 620-727); remark: listed apart in the source

Measured: binding result

B1: PIKAP AA 277-360 (other, not shown: large carriers)
chain: EDSGDAEAHAFKSPSKENKKKDKDMLEDKFKSNNLEREQEQLDRIVKESGGKLTRRLVNSQCEFERRKPDGTTTLGLLHPVDPI
not listed: [7] | [8] | [9]
no binding: all other assays above

B2: PIKAP AA 517-589 (other, not shown: large carriers)
chain: DRLIALKAVTNFGVPVEVFDSEEAEIFQKKLDETTRLLRELQEAQNERLSTRPPGNMICLLGPSSEKCILLNK
notes: The text speaks of the last 74 amino acids, while 517-589 counts 73 residues; also called last 74 amino acids of the c-terminal end of PIKAP
no binding: [1] | [2] | [3]

B3: PIKAP AA 277-589 (other, not shown: large carriers)
chain: EDSGDAEAHAFKSPSKENKKKDKDMLEDKFKSNNLEREQEQLDRIVKESGGKLTRRLVNSQCEFERRKPDGTTTLGLLHPVDPIVGEPGYCLVRLGMTTGRLQSGVNTLQGFKEDKRNKVTPVLYLNYGPYSSYAPHYDSTFANISKDDSDLIYSTYGEDSDLPSDFSIHEFLATCQDYPYVMADSLLDVLTKGGHSRTLQEMEMSLPEDEGHTRTLDTGKEMEQITEVEPPGRLDSSTQDRLIALKAVTNFGVPVEVFDSEEAEIFQKKLDETTRLLRELQEAQNERLSTRPPGNMICLLGPSSEKCILLNK
notes: Two-hybrid prey fusion expressed in yeast YGH1; also called original isolate from two hybrid screening; PI3K Associated Protein AA 277-589
no binding: [7] | [8] | [9]

B4: PIKAP AA 361-516 (other, not shown: large carriers)
chain: VGEPGYCLVRLGMTTGRLQSGVNTLQGFKEDKRNKVTPVLYLNYGPYSSYAPHYDSTFANISKDDSDLIYSTYGEDSDLPSDFSIHEFLATCQDYPYVMADSLLDVLTKGGHSRTLQEMEMSLPEDEGHTRTLDTGKEMEQITEVEPPGRLDSSTQ
not listed: [7] | [8] | [9]
no binding: all other assays above
